Measured values: US20100184658A1 (published 2010)

Tests used:
Experiment in all cases: cell-based or functional assay
[1] = target: GRK5 (UniProt P34947 1-590, limits assumed)
[2] = target: T1, PRKX (UniProt P51817 1-358, limits assumed)
T1 sequence (looked up): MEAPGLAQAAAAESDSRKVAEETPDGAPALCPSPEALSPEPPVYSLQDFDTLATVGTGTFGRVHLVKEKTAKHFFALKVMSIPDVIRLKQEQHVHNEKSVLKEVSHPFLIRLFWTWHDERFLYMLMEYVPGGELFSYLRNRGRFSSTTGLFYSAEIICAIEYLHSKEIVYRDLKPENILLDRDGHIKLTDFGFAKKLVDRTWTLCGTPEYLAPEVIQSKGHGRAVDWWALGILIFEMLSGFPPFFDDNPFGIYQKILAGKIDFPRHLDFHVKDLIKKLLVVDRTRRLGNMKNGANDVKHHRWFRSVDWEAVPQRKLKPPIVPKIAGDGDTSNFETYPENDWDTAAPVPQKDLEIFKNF

[3] = target: MAP3K8 (COT) Mitogen-activated protein kinase kinase kinase 8 (UniProt P41279 30-397, limits assumed)
[4] = target: MAPK14 (p38 alpha) Mitogen-activated protein kinase 14 (UniProt Q16539 1-360)
[5] = target: PRKCG (PKC gamma) (UniProt P05129 1-697, limits assumed)
[6] = target: T2, TYK2 (UniProt P29597 871-1187, limits assumed)
T2 sequence (looked up): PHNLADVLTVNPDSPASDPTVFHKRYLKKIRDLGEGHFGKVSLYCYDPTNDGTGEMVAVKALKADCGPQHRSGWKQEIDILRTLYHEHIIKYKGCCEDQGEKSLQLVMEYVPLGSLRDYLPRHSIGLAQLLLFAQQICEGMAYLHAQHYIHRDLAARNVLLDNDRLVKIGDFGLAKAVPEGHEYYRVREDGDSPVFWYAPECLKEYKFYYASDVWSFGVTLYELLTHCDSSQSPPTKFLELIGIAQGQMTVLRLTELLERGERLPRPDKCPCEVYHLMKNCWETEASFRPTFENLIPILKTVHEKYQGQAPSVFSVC

[7] = target: T3, PRKCN (PKD3) (UniProt O94806 1-890, limits assumed)
T3 sequence (looked up): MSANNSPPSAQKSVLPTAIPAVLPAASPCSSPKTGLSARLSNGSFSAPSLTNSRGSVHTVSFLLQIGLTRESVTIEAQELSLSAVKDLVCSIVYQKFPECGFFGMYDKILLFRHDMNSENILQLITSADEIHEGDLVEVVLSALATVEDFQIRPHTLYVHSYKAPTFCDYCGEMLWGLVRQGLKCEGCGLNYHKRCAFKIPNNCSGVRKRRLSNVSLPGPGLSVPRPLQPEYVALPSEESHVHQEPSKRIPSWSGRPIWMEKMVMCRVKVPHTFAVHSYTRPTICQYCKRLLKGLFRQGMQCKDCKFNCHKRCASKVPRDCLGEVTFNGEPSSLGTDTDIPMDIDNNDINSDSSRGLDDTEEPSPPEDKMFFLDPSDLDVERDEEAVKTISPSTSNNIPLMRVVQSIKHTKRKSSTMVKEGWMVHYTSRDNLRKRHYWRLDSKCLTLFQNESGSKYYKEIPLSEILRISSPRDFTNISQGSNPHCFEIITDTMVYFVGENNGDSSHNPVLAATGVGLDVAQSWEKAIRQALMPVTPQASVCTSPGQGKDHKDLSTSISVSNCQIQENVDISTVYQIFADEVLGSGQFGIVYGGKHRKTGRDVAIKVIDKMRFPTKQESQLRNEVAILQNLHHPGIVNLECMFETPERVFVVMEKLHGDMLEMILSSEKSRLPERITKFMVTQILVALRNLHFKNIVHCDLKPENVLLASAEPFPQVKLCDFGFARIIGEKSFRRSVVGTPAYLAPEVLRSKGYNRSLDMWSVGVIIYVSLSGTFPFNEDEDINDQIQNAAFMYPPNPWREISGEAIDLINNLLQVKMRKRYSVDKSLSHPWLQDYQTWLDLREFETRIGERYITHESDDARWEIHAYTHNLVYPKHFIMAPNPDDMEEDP

[8] = target: T4, ADRBK2 (GRK3) (UniProt P35626 1-688, limits assumed)
T4 sequence (looked up): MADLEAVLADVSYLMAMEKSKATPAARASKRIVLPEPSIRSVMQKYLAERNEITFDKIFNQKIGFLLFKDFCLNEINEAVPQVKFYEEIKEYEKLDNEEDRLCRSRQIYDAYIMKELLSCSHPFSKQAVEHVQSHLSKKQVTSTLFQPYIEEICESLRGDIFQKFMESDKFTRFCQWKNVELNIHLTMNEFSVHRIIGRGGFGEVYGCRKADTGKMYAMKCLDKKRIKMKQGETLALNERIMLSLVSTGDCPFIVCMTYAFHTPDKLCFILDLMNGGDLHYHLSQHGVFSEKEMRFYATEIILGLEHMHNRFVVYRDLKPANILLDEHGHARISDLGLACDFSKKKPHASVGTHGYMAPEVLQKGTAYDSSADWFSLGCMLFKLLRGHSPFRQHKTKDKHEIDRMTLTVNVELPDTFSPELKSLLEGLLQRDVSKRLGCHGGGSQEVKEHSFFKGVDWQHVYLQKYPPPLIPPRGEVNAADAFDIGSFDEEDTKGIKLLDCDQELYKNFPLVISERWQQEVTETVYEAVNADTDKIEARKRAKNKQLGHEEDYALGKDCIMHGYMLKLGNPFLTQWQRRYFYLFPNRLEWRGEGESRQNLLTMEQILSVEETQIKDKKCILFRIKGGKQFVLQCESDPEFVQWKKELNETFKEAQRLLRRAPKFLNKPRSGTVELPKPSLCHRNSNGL

[9] = target: PKN1 (PRK1) (UniProt Q16512 1-942, limits assumed)
Also: test concentration or dose not given here.

Chain of MAPK14 (p38 alpha) Mitogen-activated protein kinase 14 (Q16539 whole entry): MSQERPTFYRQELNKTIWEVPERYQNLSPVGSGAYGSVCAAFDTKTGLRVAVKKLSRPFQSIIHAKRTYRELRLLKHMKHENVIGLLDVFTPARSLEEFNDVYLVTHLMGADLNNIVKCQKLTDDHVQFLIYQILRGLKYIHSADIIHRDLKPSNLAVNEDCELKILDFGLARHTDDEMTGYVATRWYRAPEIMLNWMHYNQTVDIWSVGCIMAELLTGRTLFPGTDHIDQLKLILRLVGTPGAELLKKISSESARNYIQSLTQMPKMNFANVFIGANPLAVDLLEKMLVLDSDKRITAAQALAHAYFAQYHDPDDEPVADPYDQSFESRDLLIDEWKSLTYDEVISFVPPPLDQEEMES
Chain of PKN1 (PRK1) (Q16512 whole entry): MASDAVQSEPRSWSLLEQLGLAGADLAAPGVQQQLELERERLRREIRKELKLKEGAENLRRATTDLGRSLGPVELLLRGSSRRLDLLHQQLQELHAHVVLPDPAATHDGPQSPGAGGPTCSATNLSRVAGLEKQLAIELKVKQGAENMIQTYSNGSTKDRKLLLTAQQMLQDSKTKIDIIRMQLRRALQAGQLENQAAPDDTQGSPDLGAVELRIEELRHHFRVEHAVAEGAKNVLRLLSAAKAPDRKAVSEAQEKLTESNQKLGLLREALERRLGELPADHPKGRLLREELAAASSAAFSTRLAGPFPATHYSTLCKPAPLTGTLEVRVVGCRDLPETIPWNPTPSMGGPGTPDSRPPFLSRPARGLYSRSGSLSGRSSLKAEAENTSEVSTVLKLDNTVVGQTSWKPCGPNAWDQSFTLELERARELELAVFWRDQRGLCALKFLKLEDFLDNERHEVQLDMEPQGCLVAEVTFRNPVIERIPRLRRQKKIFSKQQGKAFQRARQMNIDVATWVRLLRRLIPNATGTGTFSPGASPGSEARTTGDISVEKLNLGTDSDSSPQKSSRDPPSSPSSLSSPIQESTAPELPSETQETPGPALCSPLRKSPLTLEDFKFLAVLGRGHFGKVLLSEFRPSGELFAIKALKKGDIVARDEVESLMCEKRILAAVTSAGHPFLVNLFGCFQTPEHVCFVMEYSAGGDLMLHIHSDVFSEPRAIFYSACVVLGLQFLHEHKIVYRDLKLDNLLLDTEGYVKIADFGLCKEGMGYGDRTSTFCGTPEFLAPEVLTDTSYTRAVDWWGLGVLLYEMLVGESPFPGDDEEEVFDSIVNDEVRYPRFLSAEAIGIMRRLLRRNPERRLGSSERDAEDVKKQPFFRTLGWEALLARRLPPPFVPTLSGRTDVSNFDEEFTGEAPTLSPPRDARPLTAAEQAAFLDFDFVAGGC
Chain of GRK5 (P34947 whole entry): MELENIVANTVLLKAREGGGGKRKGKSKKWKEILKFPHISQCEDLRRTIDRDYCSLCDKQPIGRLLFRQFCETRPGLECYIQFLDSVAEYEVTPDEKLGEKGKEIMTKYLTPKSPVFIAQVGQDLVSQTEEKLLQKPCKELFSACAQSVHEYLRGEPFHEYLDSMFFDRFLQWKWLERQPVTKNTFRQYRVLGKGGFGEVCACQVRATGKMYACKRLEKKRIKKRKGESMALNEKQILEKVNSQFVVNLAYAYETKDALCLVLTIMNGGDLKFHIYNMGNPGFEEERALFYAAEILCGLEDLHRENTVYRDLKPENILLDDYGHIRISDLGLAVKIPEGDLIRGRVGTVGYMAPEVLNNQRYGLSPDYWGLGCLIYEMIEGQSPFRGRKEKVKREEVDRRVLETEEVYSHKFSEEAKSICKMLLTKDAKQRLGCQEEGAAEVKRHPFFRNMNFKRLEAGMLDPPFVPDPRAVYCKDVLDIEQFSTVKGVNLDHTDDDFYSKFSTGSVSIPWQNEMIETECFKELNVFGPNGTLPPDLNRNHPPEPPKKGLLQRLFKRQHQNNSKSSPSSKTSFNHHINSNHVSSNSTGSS
Chain of MAP3K8 (COT) Mitogen-activated protein kinase kinase kinase 8 (P41279 30-397 limits assumed): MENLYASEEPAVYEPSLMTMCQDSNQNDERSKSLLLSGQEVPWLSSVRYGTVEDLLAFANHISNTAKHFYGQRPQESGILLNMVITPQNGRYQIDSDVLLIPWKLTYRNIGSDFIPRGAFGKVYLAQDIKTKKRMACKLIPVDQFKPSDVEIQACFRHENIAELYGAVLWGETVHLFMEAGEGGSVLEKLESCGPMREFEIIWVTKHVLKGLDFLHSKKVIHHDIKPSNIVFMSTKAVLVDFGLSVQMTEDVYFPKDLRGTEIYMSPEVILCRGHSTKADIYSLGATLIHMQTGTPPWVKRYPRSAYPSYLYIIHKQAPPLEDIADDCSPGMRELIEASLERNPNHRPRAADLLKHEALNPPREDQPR

SGRPPMIVWFNRPFLIAVSHTHGQTILFMAKVINPVGA [D3 peptide] was tested, and the “% Inhibition mean” value [1] was 50.8%, the “% Inhibition mean” value [2] was 100% and the “% Inhibition mean” value [3] was 98.6%. For the same binder, the “% Inhibition mean” value [4] was 83%, the “% Inhibition mean” value [5] was 81% and the “% Inhibition mean” value [6] was 70.5%. The “% Inhibition mean” value [7] was 69.6%, the “% Inhibition mean” value [8] was 66.7% and the “% Inhibition mean” value [9] was 64%.
